Columns and labels:
[1] = target: DGK_(Cysless), cysless His6-tagged diacylglycerol kinase from Escherichia coli (Escherichia coli); assay: anion exchange chromatography of subunit exchange
[2] = target: E5-DGK_(Cysless), cysless His6-tagged diacylglycerol kinase with a pentaglutamate tag (Escherichia coli); assay: anion exchange chromatography of subunit exchange

| half-life of subunit exchange [1] [weeks] | half-life of subunit exchange [2] [weeks] | percent of the expected final subunit exchange after 7 days [1] [%] | ratio of the mixed peaks to the pure peaks after 7 days [1] | Substance |
| --- | --- | --- | --- | --- |
| > 5 |  |  |  | DGK_(Cysless), cysless His6-tagged diacylglycerol kinase from Escherichia coli (enzyme) |
|  | > 5 | 10 | 0.3 | E5-DGK_(Cysless), cysless His6-tagged diacylglycerol kinase with a pentaglutamate tag (enzyme) |

Reference: publication PMC3839629
